Reference: patent US20100298225A1, “PEPTIDE GAP JUNCTION MODULATORS” (published 2010)

Key:
[1] = biological target: T1, Recombinant Cx43CT (carboxyl terminal domain of connexin43, sequence 255-382 of rCx43 preceded by GPLG) (rat, UniProt P08050); test: SPR, Cx43CT immobilised, peptide at 1 mM
Procedure: (§1) Recombinant Cx43CT was covalently bound to a carboxylmethyl dextran matrix (Salamon et al., “Surface Plasmon Resonance Spectroscopy as a Tool for Investigating the Biochemical and Biophysical Properties of Membrane Protein Systems. II: Applications to Biological Systems,” Biochim. Biophys. Acta 1331(2):131-152 (1997), which is hereby incorporated by reference in its entirety). Specific peptides were presented and, when feasible, dissociation constants (KD) were calculated from the time course of binding and unbinding of the ligand, using a 1:1 (Langmuir) association and dissociation kinetic model (Biacore software package). In both phases (association and dissociation), the first 5-8 seconds of recording were not included in the fit, to avoid artifacts resulting from peptide distribution within the flow cells (Lang et al., “Surface Plasmon Resonance as a Method to Study the Kinetics and Amplitude of Protein-protein Binding,” in PRACTICAL METHODS IN CARDIOVASCULAR […] 936-947 (Stefan Dhein, Friedrich Wilhelm Mohr & Mario Delmar eds., 2005), which is hereby incorporated by reference in its entirety).
(§2) The peptides shown in table 2 and 3 were tested for binding to the carboxyl terminal domain (CT) of Cx43 using Surface Plasmon Resonance (“SPR”). SPR is a method that was used to identify the original RXPE sequence (Shibayama et al., “Identification of a Novel Peptide that Interferes with the Chemical Regulation of Connexin-43,” Circ. Res. 98:1365-72 (2006)).

[2] = biological target: T1, Recombinant Cx43CT (carboxyl terminal …); test: SPR, Cx43CT immobilised, peptide at 25 uM
Procedure: as §1, §2

[3] = biological target: T1, Recombinant Cx43CT (carboxyl terminal …); test: SPR, Cx43CT immobilised, peptide at 100 uM
Procedure: as §1, §2

[4] = biological target: T1, Recombinant Cx43CT (carboxyl terminal …); test: SPR, Cx43CT immobilised, peptide at 250 uM
Procedure: as §1, §2

[5] = biological target: T1, Recombinant Cx43CT (carboxyl terminal …); test: SPR, Cx43CT immobilised, peptide at 500 uM
Procedure: as §1, §2

[6] = biological target: T1, Recombinant Cx43CT (carboxyl terminal …); test: SPR, Cx43CT immobilised, peptide at 1 mM, response normalised on Mw
Excerpt: (§3) Biophys. […] Commun. 8(4-6):225-229 (2001); Lang et al., “Surface Plasmon Resonance as a Method to Study the Kinetics and Amplitude of Protein-protein Binding,” in PRACTICAL METHODS IN CARDIOVASCULAR […] 936-947 (Stefan Dhein, Friedrich Wilhelm Mohr & Mario Delmar eds., 2005), which are hereby incorporated by reference in their entirety). Recombinant Cx43CT was covalently bound to a carboxylmethyl dextran matrix (Salamon et al., “Surface Plasmon Resonance Spectroscopy as a Tool for Investigating the Biochemical and Biophysical Properties of Membrane Protein Systems. II: Applications to Biological Systems,” Biochim. Biophys. Acta 1331(2):131-152 (1997), which is hereby incorporated by reference in its entirety). Specific peptides were presented and, when feasible, dissociation constants (KD) were calculated from the time course of binding and unbinding of the ligand, using a 1:1 (Langmuir) association and dissociation kinetic model (Biacore software package). In both phases (association and dissociation), the first 5-8 seconds of recording were not included in the fit, to avoid artifacts resulting from peptide distribution within the flow cells (Lang et al., “Surface Plasmon Resonance as a Method to Study the Kinetics and Amplitude of Protein-protein Binding,” in PRACTICAL METHODS IN CARDIOVASCULAR […] 936-947 (Stefan Dhein, Friedrich Wilhelm Mohr & Mario Delmar eds., 2005), which is hereby incorporated by reference in its entirety).
(§4) The peptides shown in table 2 and 3 were tested for binding to the carboxyl terminal domain (CT) of Cx43 using Surface Plasmon Resonance (“SPR”). SPR is a method that was used to identify the original RXPE sequence (Shibayama et al., “Identification of a Novel Peptide that Interferes with the Chemical Regulation of Connexin-43,” Circ. Res. 98:1365-72 (2006)). The amplitude of the response is also a function of the mass of the ligate, and the normalized data according to the individual peptide Mw's are shown in table 3.

[7] = biological target: T1, Recombinant Cx43CT (carboxyl terminal …); test: SPR, Cx43CT immobilised, peptide at 25 uM, response normalised on Mw
Excerpt: as §3, §4

[8] = biological target: T1, Recombinant Cx43CT (carboxyl terminal …); test: SPR, Cx43CT immobilised, peptide at 100 uM, response normalised on Mw
Excerpt: as §3, §4

[9] = biological target: T1, Recombinant Cx43CT (carboxyl terminal …); test: SPR, Cx43CT immobilised, peptide at 250 uM, response normalised on Mw
Excerpt: as §3, §4

[10] = biological target: T1, Recombinant Cx43CT (carboxyl terminal …); test: SPR, Cx43CT immobilised, peptide at 500 uM, response normalised on Mw
Excerpt: as §3, §4

T1 sequence (P08050 other isoform, or with tags, fused parts or gaps limits assumed): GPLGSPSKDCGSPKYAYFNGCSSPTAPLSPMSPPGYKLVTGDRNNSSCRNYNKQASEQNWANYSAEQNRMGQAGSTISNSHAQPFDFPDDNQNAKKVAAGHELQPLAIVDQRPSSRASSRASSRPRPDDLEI

| Binder | SPR respons at 1 mM [1] [arbitrary units] | SPR respons at 25 uM [2] [arbitrary units] | SPR respons at 100 uM [3] [arbitrary units] | SPR respons at 250 uM [4] [arbitrary units] | SPR respons at 500 uM [5] [arbitrary units] | SPR normalised on Mw at 1 mM [6] | SPR normalised on Mw at 25 uM [7] | SPR normalised on Mw at 100 uM [8] | SPR normalised on Mw at 250 uM [9] | SPR normalised on Mw at 500 uM [10] |
| --- | --- | --- | --- | --- | --- | --- | --- | --- | --- | --- |
| Ac-YNRRGGGSAVPFYSHSYNRR-NH2 [Compound 2496] | 1400 | 67.7 | 156 | 358 | 739 | 58.8 (SPRrespons*100)/Mw | 2.8 (SPRrespons*100)/Mw | 6.5 (SPRrespons*100)/Mw | 15 (SPRrespons*100)/Mw | 31 (SPRrespons*100)/Mw |
| Ac-RRNYGGGSAVPFYRRNY-NH2 [Compound 2508] | 1020 | 31.1 | 122 | 285 | 547 | 49.4 (SPRrespons*100)/Mw | 1.5 (SPRrespons*100)/Mw | 5.9 (SPRrespons*100)/Mw | 13.7 (SPRrespons*100)/Mw | 26.4 (SPRrespons*100)/Mw |
| Ac-RRNYSAVPFYSHSRRNY-NH2 [Compound 2506] | 1170 | 51.7 | 117 | 327 | 562 | 53 (SPRrespons*100)/Mw | 2.3 (SPRrespons*100)/Mw | 5.3 (SPRrespons*100)/Mw | 14.8 (SPRrespons*100)/Mw | 25.4 (SPRrespons*100)/Mw |
| Ac-RRNYSHSRRNY-NH2 [Compound 2507] | 703 | 42.3 | 114 | 254 | 438 | 45.4 (SPRrespons*100)/Mw | 2.7 (SPRrespons*100)/Mw | 7.3 (SPRrespons*100)/Mw | 16.4 (SPRrespons*100)/Mw | 28.3 (SPRrespons*100)/Mw |
| Ac-RRNY-NH2 [Compound 2498] | 91 | – | – | – | 50.9 | 14 (SPRrespons*100)/Mw | – | – | – | 7.9 (SPRrespons*100)/Mw |
| Ac-YNRR-NH2 [Compound 2499] | 69.4 | – | – | – | – | 10.7 (SPRrespons*100)/Mw | – | – | – | – |
| Ac-RRNYVPRRNY-NH2 [Compound 2512] | 395 | 14.8 | 50.7 | 117 | 227 | 27.5 (SPRrespons*100)/Mw | 1 (SPRrespons*100)/Mw | 3.5 (SPRrespons*100)/Mw | 8.2 (SPRrespons*100)/Mw | 15.9 (SPRrespons*100)/Mw |
| Ac-RRNYAVPFRRNY-NH2 [Compound 2511] | 692 | 16.2 | 90.5 | 214 | 390 | 41.9 (SPRrespons*100)/Mw | 1 (SPRrespons*100)/Mw | 5.5 (SPRrespons*100)/Mw | 13 (SPRrespons*100)/Mw | 23.6 (SPRrespons*100)/Mw |
| Ac-RRNYGGGRRNY-NH2 [Compound 2509] | 479 | 21.5 | 62.5 | 148 | 281 | 34 (SPRrespons*100)/Mw | 1.5 (SPRrespons*100)/Mw | 4.4 (SPRrespons*100)/Mw | 10.5 (SPRrespons*100)/Mw | 19.9 (SPRrespons*100)/Mw |
| Ac-RRNYGGSAVPFYSHRRNY-NH2 [Compound 2510] | 1190 | 40.3 | 176 | 332 | 643 | 53 (SPRrespons*100)/Mw | 1.8 (SPRrespons*100)/Mw | 7.9 (SPRrespons*100)/Mw | 14.8 (SPRrespons*100)/Mw | 28.7 (SPRrespons*100)/Mw |
| Ac-RRNYRRNY-NH2 [Compound 2497] | 565 | 30.2 | 84.2 | 202 | 328 | 45.7 (SPRrespons*100)/Mw | 2.4 (SPRrespons*100)/Mw | 6.8 (SPRrespons*100)/Mw | 16.3 (SPRrespons*100)/Mw | 26.5 (SPRrespons*100)/Mw |
